Assay results published in PMC8274477 (Frontiers in Cell and Developmental Biology, 2021).

Biological target: T1, OTULIN (OTU deubiquitinase with linear linkage specificity, FAM105B), His-tagged, biotin-labelled (human, UniProt Q96BN8 1-352, biotin (label; sites not stated))
T1 construct: OTULIN (FAM105B), cDNA in pET28a; also called HIS-OTULIN; source: E. coli BL21 (DE3), purified (His-tag Purification Resin), labelled with biotin; not shown: His6, N-terminal, kept
Assay: peptide or protein array; HuProt human proteome microarray; 5 ug/5 ml biotin-labelled LUBAC or OTULIN in solution, 1 h at room temperature; Cy5-streptavidin, scanned at 635 nm; BSA as negative control; hits: Z-score >= 3 and I_(Mean_Ratio) >= 1.4
Details: both partners purified

Binder	binding result
TK1 (natural protein, human, UniProt P04183 1-234, looked up, TK1; protein on the human proteome microarray; source: spotted on the HuProt human proteome microarray) MSCINLPTVLPGSPSKTRGQIQVILGPMFSGKSTELMRRVRRFQIAQYKCLVIKYAKDTRYSSSFCTHDRNTMEALPACLLRDVAQEALGVAVIGIDEGQFFPDIVEFCEAMANAGKTVIVAALDGTFQRKPFGAILNLVPLAESVVKLTAVCMECFREAAYTKRLGTEKEVEVIGGADKYHSVCRLCYFKKASGQPAGPDNKENCPVPGKPGEAVAARKLFAPQQILQCSPAN	binds
AKR1C3 (natural protein, human, UniProt P42330 1-323, looked up, AKR1C3; protein on the human proteome microarray; source: spotted on the HuProt human proteome microarray) MDSKHQCVKLNDGHFMPVLGFGTYAPPEVPRSKALEVTKLAIEAGFRHIDSAHLYNNEEQVGLAIRSKIADGSVKREDIFYTSKLWSTFHRPELVRPALENSLKKAQLDYVDLYLIHSPMSLKPGEELSPTDENGKVIFDIVDLCTTWEAMEKCKDAGLAKSIGVSNFNRRQLEMILNKPGLKYKPVCNQVECHPYFNRSKLLDFCKSKDIVLVAYSALGSQRDKRWVDPNSPVLLEDPVLCALAKKHKRTPALIALRYQLQRGVVVLAKSYNEQRIRQNVQVFEFQLTAEDMKAIDGLDRNLHYFNSDSFASHPNYPYSDEY	binds
TST (natural protein, human, UniProt Q16762 1-297, looked up, TST; protein on the human proteome microarray; source: spotted on the HuProt human proteome microarray) MVHQVLYRALVSTKWLAESIRTGKLGPGLRVLDASWYSPGTREARKEYLERHVPGASFFDIEECRDTASPYEMMLPSEAGFAEYVGRLGISNHTHVVVYDGEHLGSFYAPRVWWMFRVFGHRTVSVLNGGFRNWLKEGHPVTSEPSRPEPAVFKATLDRSLLKTYEQVLENLESKRFQLVDSRSQGRFLGTEPEPDAVGLDSGHIRGAVNMPFMDFLTEDGFEKGPEELRALFQTKKVDLSQPLIATCRKGVTACHVALAAYLCGKPDVAVYDGSWSEWFRRAPPESRVSQGKSEKA	binds
TTC9 (natural protein, human, UniProt Q92623 1-222, looked up, TTC9; protein on the human proteome microarray; source: spotted on the HuProt human proteome microarray) MERKGSAAGAKGNPSPPAAGEGQRPPPPLCVPGGGGGAPARGQVGAAAEPAELIRRAHEFKSQGAQCYKDKKFREAIGKYHRALLELKGLLPPPGERERDSRPASPAGALKPGRLSEEQSKTVEAIEIDCYNSLAACLLQAELVNYERVKEYCLKVLKKEGENFKALYRSGVAFYHLGDYDKALYYLKEARTQQPTDTNVIRYIQLTEMKLSRCSQREKEAM	binds
SPRR4 (natural protein, human, UniProt Q96PI1 1-79, looked up, SPRR4; protein on the human proteome microarray; source: spotted on the HuProt human proteome microarray) MSSQQQQRQQQQCPPQRAQQQQVKQPCQPPPVKCQETCAPKTKDPCAPQVKKQCPPKGTIIPAQQKCPSAQQASKSKQK	binds
SRA1 (natural protein, human, UniProt Q9HD15 1-224, looked up, SRA1; protein on the human proteome microarray; source: spotted on the HuProt human proteome microarray) MAELYVKPGNKERGWNDPPQFSYGLQTQAGGPRRSLLTKRVAAPQDGSPRVPASETSPGPPPMGPPPPSSKAPRSPPVGSGPASGVEPTSFPVESEAVMEDVLRPLEQALEDCRGHTRKQVCDDISRRLALLQEQWAGGKLSIPVKKRMALLVQELSSHRWDAADDIHRSLMVDHVTEVSQWMVGVKRLIAEKRSLFSEEAANEEKSAATAEKNHTIPGFQQAS	binds
RBM3 (natural protein, human, UniProt P98179 1-157, looked up, RBM3; protein on the human proteome microarray; source: spotted on the HuProt human proteome microarray) MSSEEGKLFVGGLNFNTDEQALEDHFSSFGPISEVVVVKDRETQRSRGFGFITFTNPEHASVAMRAMNGESLDGRQIRVDHAGKSARGTRGGGFGAHGRGRSYSRGGGDQGYGSGRYYDSRPGGYGYGYGRSRDYNGRNQGGYDRYSGGNYRDNYDN	binds
SULT1C2 (natural protein, human, UniProt O00338 1-296, looked up, SULT1C2; protein on the human proteome microarray; source: spotted on the HuProt human proteome microarray) MALTSDLGKQIKLKEVEGTLLQPATVDNWSQIQSFEAKPDDLLICTYPKAGTTWIQEIVDMIEQNGDVEKCQRAIIQHRHPFIEWARPPQPSGVEKAKAMPSPRILKTHLSTQLLPPSFWENNCKFLYVARNAKDCMVSYYHFQRMNHMLPDPGTWEEYFETFINGKVVWGSWFDHVKGWWEMKDRHQILFLFYEDIKRDPKHEIRKVMQFMGKKVDETVLDKIVQETSFEKMKENPMTNRSTVSKSILDQSISSFMRKGTVGDWKNHFTVAQNERFDEIYRRKMEGTSINFCMEL	binds
RPP25 (natural protein, human, UniProt Q9BUL9 1-199, looked up, RPP25; protein on the human proteome microarray; source: spotted on the HuProt human proteome microarray) MENFRKVRSEEAPAGCGAEGGGPGSGPFADLAPGAVHMRVKEGSKIRNLMAFATASMAQPATRAIVFSGCGRATTKTVTCAEILKRRLAGLHQVTRLRYRSVREVWQSLPPGPTQGQTPGEPAASLSVLKNVPGLAILLSKDALDPRQPGYQPPNPHPGPSSPPAAPASKRSLGEPAAGEGSAKRSQPEPGVADEDQTA	binds
RALY (natural protein, human, UniProt Q9UKM9 1-306, looked up, RALY; protein on the human proteome microarray; source: spotted on the HuProt human proteome microarray) MSLKLQASNVTNKNDPKSINSRVFIGNLNTALVKKSDVETIFSKYGRVAGCSVHKGYAFVQYSNERHARAAVLGENGRVLAGQTLDINMAGEPKPDRPKGLKRAASAIYSGYIFDYDYYRDDFYDRLFDYRGRLSPVPVPRAVPVKRPRVTVPLVRRVKTNVPVKLFARSTAVTTSSAKIKLKSSELQAIKTELTQIKSNIDALLSRLEQIAAEQKANPDGKKKGDGGGAGGGGGGGGSGGGGSGGGGGGGSSRPPAPQENTTSEAGLPQGEARTRDDGDEEGLLTHSEEELEHSQDTDADDGALQ	binds
SULT1B1 (natural protein, SULT1B1; protein on the human proteome microarray; source: spotted on the HuProt human proteome microarray) not shown	binds
AKR1D1 (natural protein, human, UniProt P51857 1-326, looked up, AKR1D1; protein on the human proteome microarray; source: spotted on the HuProt human proteome microarray) MDLSAASHRIPLSDGNSIPIIGLGTYSEPKSTPKGACATSVKVAIDTGYRHIDGAYIYQNEHEVGEAIREKIAEGKVRREDIFYCGKLWATNHVPEMVRPTLERTLRVLQLDYVDLYIIEVPMAFKPGDEIYPRDENGKWLYHKSNLCATWEAMEACKDAGLVKSLGVSNFNRRQLELILNKPGLKHKPVSNQVECHPYFTQPKLLKFCQQHDIVITAYSPLGTSRNPIWVNVSSPPLLKDALLNSLGKRYNKTAAQIVLRFNIQRGVVVIPKSFNLERIKENFQIFDFSLTEEEMKDIEALNKNVRFVELLMWRDHPEYPFHDEY	binds
RAB5C (natural protein, human, UniProt P51148 1-216, looked up, RAB5C; protein on the human proteome microarray; source: spotted on the HuProt human proteome microarray) MAGRGGAARPNGPAAGNKICQFKLVLLGESAVGKSSLVLRFVKGQFHEYQESTIGAAFLTQTVCLDDTTVKFEIWDTAGQERYHSLAPMYYRGAQAAIVVYDITNTDTFARAKNWVKELQRQASPNIVIALAGNKADLASKRAVEFQEAQAYADDNSLLFMETSAKTAMNVNEIFMAIAKKLPKNEPQNATGAPGRNRGVDLQENNPASRSQCCSN	binds
TAF9B (natural protein, human, UniProt Q9HBM6 1-251, looked up, TAF9B; protein on the human proteome microarray; source: spotted on the HuProt human proteome microarray) MESGKMAPPKNAPRDALVMAQILKDMGITEYEPRVINQMLEFAFRYVTTILDDAKIYSSHAKKPNVDADDVRLAIQCRADQSFTSPPPRDFLLDIARQKNQTPLPLIKPYAGPRLPPDRYCLTAPNYRLKSLIKKGPNQGRLVPRLSVGAVSSKPTTPTIATPQTVSVPNKVATPMSVTSQRFTVQIPPSQSTPVKPVPATTAVQNVLINPSMIGPKNILITTNMVSSQNTANEANPLKRKHEDDDDNDIM	binds
TMEM116 (natural protein, human, UniProt Q8NCL8 1-245, looked up, TMEM116; protein on the human proteome microarray; source: spotted on the HuProt human proteome microarray) MKHTQSGQSTSPLVIDYTCRVCQMAFVFSSLIPLLLMTPVFCLGNTSECFQNFSQSHKCILMHSPPSAMAELPPSANTSVCSTLYFYGIAIFLGSFVLSLLTIMVLLIRAQTLYKKFVKSTGFLGSEQWAVIHIVDQRVRFYPVAFFCCWGPAVILMIIKLTKPQDTKLHMALYVLQALTATSQGLLNCGVYGWTQHKFHQLKQEARRDADTQTPLLCSQKRFYSRGLNSLESTLTFPASTSTIF	binds
RAB5A (natural protein, human, UniProt P20339 1-215, looked up, RAB5A; protein on the human proteome microarray; source: spotted on the HuProt human proteome microarray) MASRGATRPNGPNTGNKICQFKLVLLGESAVGKSSLVLRFVKGQFHEFQESTIGAAFLTQTVCLDDTTVKFEIWDTAGQERYHSLAPMYYRGAQAAIVVYDITNEESFARAKNWVKELQRQASPNIVIALSGNKADLANKRAVDFQEAQSYADDNSLLFMETSAKTSMNVNEIFMAIAKKLPKNEPQNPGANSARGRGVDLTEPTQPTRNQCCSN	binds
SDS (natural protein, human, UniProt P20132 1-328, looked up, SDS; protein on the human proteome microarray; source: spotted on the HuProt human proteome microarray) MMSGEPLHVKTPIRDSMALSKMAGTSVYLKMDSAQPSGSFKIRGIGHFCKRWAKQGCAHFVCSSAGNAGMAAAYAARQLGVPATIVVPSTTPALTIERLKNEGATVKVVGELLDEAFELAKALAKNNPGWVYIPPFDDPLIWEGHASIVKELKETLWEKPGAIALSVGGGGLLCGVVQGLQEVGWGDVPVIAMETFGAHSFHAATTAGKLVSLPKITSVAKALGVKTVGAQALKLFQEHPIFSEVISDQEAVAAIEKFVDDEKILVEPACGAALAAVYSHVIQKLQLEGNLRTPLPSLVVIVCGGSNISLAQLRALKEQLGMTNRLPK	binds
SLC25A16 (natural protein, human, UniProt P16260 1-332, looked up, SLC25A16; protein on the human proteome microarray; source: spotted on the HuProt human proteome microarray) MAAATAAAALAAADPPPAMPQAAGAGGPTTRRDFYWLRSFLAGGIAGCCAKTTVAPLDRVKVLLQAHNHHYKHLGVFSALRAVPQKEGFLGLYKGNGAMMIRIFPYGAIQFMAFEHYKTLITTKLGISGHVHRLMAGSMAGMTAVICTYPLDMVRVRLAFQVKGEHSYTGIIHAFKTIYAKEGGFFGFYRGLMPTILGMAPYAGVSFFTFGTLKSVGLSHAPTLLGRPSSDNPNVLVLKTHVNLLCGGVAGAIAQTISYPFDVTRRRMQLGTVLPEFEKCLTMRDTMKYVYGHHGIRKGLYRGLSLNYIRCIPSQAVAFTTYELMKQFFHLN	binds
RAB2B (natural protein, human, UniProt Q8WUD1 1-216, looked up, RAB2B; protein on the human proteome microarray; source: spotted on the HuProt human proteome microarray) MTYAYLFKYIIIGDTGVGKSCLLLQFTDKRFQPVHDLTIGVEFGARMVNIDGKQIKLQIWDTAGQESFRSITRSYYRGAAGALLVYDITRRETFNHLTSWLEDARQHSSSNMVIMLIGNKSDLESRRDVKREEGEAFAREHGLIFMETSAKTACNVEEAFINTAKEIYRKIQQGLFDVHNEANGIKIGPQQSISTSVGPSASQRNSRDIGSNSGCC	binds
SRXN1 (natural protein, SRXN1; protein on the human proteome microarray; source: spotted on the HuProt human proteome microarray) not shown	binds
TTC9C (natural protein, human, UniProt Q8N5M4 1-171, looked up, TTC9C; protein on the human proteome microarray; source: spotted on the HuProt human proteome microarray) MEKRLQEAQLYKEEGNQRYREGKYRDAVSRYHRALLQLRGLDPSLPSPLPNLGPQGPALTPEQENILHTTQTDCYNNLAACLLQMEPVNYERVREYSQKVLERQPDNAKALYRAGVAFFHLQDYDQARHYLLAAVNRQPKDANVRRYLQLTQSELSSYHRKEKQLYLGMFG	binds
